Experimental data taken from IntAct's records for PubMed 18063693.

B1: Steroid hormone receptor ERR1 (Homo sapiens), P11474 (parent)
chain: MSSQVVGIEPLYIKAEPASPDSPKGSSETETEPPVALAPGPAPTRCLPGHKEEEDGEGAGPGEQGGGKLVLSSLPKRLCLVCGDVASGYHYGVASCEACKAFFKRTIQGSIEYSCPASNECEITKRRRKACQACRFTKCLRVGMLKEGVRLDRVRGGRQKYKRRPEVDPLPFPGPFPAGPLAVAGGPRKTAAPVNALVSHLLVVEPEKLYAMPDPAGPDGHLPAVATLCDLFDREIVVTISWAKSIPGFSSLSLSDQMSVLQSVWMEVLVLGVAQRSLPLQDELAFAEDLVLDEEGARAAGLGELGAALLQLVRRLQALRLEREEYVLLKALALANSDSVHIEDAEAVEQLREALHEALLEYEAGRAGPGGGAERRRAGRLLLTLPLLRQTAGKVLAHFYGVKLEGKVPMHKLFLEMLEAMMD
partner: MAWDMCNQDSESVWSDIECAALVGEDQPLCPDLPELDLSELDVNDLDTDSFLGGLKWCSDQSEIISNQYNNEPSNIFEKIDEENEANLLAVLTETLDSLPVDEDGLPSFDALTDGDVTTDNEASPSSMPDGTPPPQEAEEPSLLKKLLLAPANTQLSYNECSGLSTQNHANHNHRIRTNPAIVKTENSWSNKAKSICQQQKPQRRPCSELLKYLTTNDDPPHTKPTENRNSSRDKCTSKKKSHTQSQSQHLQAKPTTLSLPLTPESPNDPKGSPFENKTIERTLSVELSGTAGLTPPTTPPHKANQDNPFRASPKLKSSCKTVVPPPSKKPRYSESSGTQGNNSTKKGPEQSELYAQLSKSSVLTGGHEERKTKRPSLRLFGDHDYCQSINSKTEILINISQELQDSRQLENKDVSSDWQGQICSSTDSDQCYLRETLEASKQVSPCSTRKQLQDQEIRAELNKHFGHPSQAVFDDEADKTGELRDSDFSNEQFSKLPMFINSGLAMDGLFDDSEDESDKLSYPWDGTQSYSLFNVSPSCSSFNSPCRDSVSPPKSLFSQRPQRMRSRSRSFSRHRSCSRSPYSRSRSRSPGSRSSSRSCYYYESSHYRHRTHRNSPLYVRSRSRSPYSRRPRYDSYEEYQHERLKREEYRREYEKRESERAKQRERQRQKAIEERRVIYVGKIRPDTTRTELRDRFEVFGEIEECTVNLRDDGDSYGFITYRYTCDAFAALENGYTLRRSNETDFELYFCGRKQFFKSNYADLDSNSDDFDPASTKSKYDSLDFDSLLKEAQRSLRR
B2: Estrogen-related receptor gamma (Homo sapiens), P62508 (parent)
chain: MDSVELCLPESFSLHYEEELLCRMSNKDRHIDSSCSSFIKTEPSSPASLTDSVNHHSPGGSSDASGSYSSTMNGHQNGLDSPPLYPSAPILGGSGPVRKLYDDCSSTIVEDPQTKCEYMLNSMPKRLCLVCGDIASGYHYGVASCEACKAFFKRTIQGNIEYSCPATNECEITKRRRKSCQACRFMKCLKVGMLKEGVRLDRVRGGRQKYKRRIDAENSPYLNPQLVQPAKKPYNKIVSHLLVAEPEKIYAMPDPTVPDSDIKALTTLCDLADRELVVIIGWAKHIPGFSTLSLADQMSLLQSAWMEILILGVVYRSLSFEDELVYADDYIMDEDQSKLAGLLDLNNAILQLVKKYKSMKLEKEEFVTLKAIALANSDSMHIEDVEAVQKLQDVLHEALQDYEAGQHMEDPRRAGKMLMTLPLLRQTSTKAVQHFYNIKLEGKVPMHKLFLEMLEAKV
partner: B1 partner
B3: Steroid hormone receptor ERR1 (Homo sapiens), P11474 (parent)
chain: B1 chain

Variants of: B1
Conditions: with prgc1_human PPARGC1A

Variant	effect of a mutation on the interaction
MSSQVVGIEPLYIRAEPASPDSPKGSSETETEPPVALAPGPAPTRCLPGHKEEEDGEGAGPGEQGGGKLVLSSLPKRLCLVCGDVASGYHYGVASCEACKAFFKRTIQGSIEYSCPASNECEITKRRRKACQACRFTKCLRVGMLKEGVRLDRVRGGRQKYKRRPEVDPLPFPGPFPAGPLAVAGGPRKTAAPVNALVSHLLVVEPEKLYAMPDPAGPDGHLPAVATLCDLFDREIVVTISWAKSIPGFSSLSLSDQMSVLQSVWMEVLVLGVAQRSLPLQDELAFAEDLVLDEEGARAAGLGELGAALLQLVRRLQALRLEREEYVLLKALALANSDSVHIEDAEAVEQLREALHEALLEYEAGRAGPGGGAERRRAGRLLLTLPLLRQTAGKVLAHFYGVKLEGKVPMHKLFLEMLEAMMD [K14R]	with no effect

Variants of: B2
Conditions: with prgc1_human PPARGC1A

Variant	effect of a mutation on the interaction
MDSVELCLPESFSLHYEEELLCRMSNKDRHIDSSCSSFIRTEPSSPASLTDSVNHHSPGGSSDASGSYSSTMNGHQNGLDSPPLYPSAPILGGSGPVRKLYDDCSSTIVEDPQTKCEYMLNSMPKRLCLVCGDIASGYHYGVASCEACKAFFKRTIQGNIEYSCPATNECEITKRRRKSCQACRFMKCLKVGMLKEGVRLDRVRGGRQKYKRRIDAENSPYLNPQLVQPAKKPYNKIVSHLLVAEPEKIYAMPDPTVPDSDIKALTTLCDLADRELVVIIGWAKHIPGFSTLSLADQMSLLQSAWMEILILGVVYRSLSFEDELVYADDYIMDEDQSKLAGLLDLNNAILQLVKKYKSMKLEKEEFVTLKAIALANSDSMHIEDVEAVQKLQDVLHEALQDYEAGQHMEDPRRAGKMLMTLPLLRQTSTKAVQHFYNIKLEGKVPMHKLFLEMLEAKV [K40R]	with no effect

Variants of: B3
Conditions: with sumo3_human SUMO3, P55854
Sequence of sumo3_human SUMO3, P55854 (P55854 whole entry): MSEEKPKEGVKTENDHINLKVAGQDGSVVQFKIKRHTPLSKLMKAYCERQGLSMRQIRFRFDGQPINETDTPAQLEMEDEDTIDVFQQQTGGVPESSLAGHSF

Variant	effect of a mutation on the interaction
MSSQVVGIEPLYIRAEPASPDSPKGSSETETEPPVALAPGPAPTRCLPGHKEEEDGEGAGPGEQGGGKLVLSSLPKRLCLVCGDVASGYHYGVASCEACKAFFKRTIQGSIEYSCPASNECEITKRRRKACQACRFTKCLRVGMLKEGVRLDRVRGGRQKYKRRPEVDPLPFPGPFPAGPLAVAGGPRKTAAPVNALVSHLLVVEPEKLYAMPDPAGPDGHLPAVATLCDLFDREIVVTISWAKSIPGFSSLSLSDQMSVLQSVWMEVLVLGVAQRSLPLQDELAFAEDLVLDEEGARAAGLGELGAALLQLVRRLQALRLEREEYVLLKALALANSDSVHIEDAEAVEQLREALHEALLEYEAGRAGPGGGAERRRAGRLLLTLPLLRQTAGKVLAHFYGVKLEGKVPMHKLFLEMLEAMMD [K14R]	with no effect
